Molecular target: FLAG-HA-PTEN, P60484
Sequence (P60484 whole entry): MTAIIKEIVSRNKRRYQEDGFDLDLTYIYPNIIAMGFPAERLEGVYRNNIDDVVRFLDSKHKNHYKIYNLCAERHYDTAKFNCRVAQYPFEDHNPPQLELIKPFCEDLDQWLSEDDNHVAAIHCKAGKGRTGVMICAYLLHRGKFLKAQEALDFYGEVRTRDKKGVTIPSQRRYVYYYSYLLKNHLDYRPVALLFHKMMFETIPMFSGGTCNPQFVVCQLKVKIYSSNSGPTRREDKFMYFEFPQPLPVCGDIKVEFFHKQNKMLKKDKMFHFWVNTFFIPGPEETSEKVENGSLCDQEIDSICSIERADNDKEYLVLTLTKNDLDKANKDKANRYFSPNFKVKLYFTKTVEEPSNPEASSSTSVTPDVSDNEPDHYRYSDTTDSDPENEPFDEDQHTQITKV

B1: Lyn (protein)
chain: GCIKSKGKDSLSDDGVDLKTQPVRNTERTIYVRDPTSNKQQRPVPESQLLPGQRFQTKDPEEQGDIVVALYPYDGIHPDDLSFKKGEKMKVLEEHGEWWKAKSLLTKKEGFIPSNYVAKLNTLETEEWFFKDITRKDAERQLLAPGNSAGAFLIRESETLKGSFSLSVRDFDPVHGDVIKHYKIRSLDNGGYYISPRITFPCISDMIKHYQKQADGLCRRLEKACISPKPQKPWDKDAWEIPRESIKLVKRLGAGQFGEVWMGYYNNSTKVAVKTLKPGTMSVQAFLEEANLMKTLQHDKLVRLYAVVTREEPIYIITEYMAKGSLLDFLKSDEGGKVLLPKLIDFSAQIAEGMAYIERKNYIHRDLRAANVLVSESLMCKIADFGLARVIEDNEYTAREGAKFPIKWTAPEAINFGCFTIKSDVWSFGILLYEIVTYGKIPYPGRTNADVMTALSQGYRMPRVENCPDELYDIMKMCWKEKAEERPTFDYLQSVLDDFYTATEGQYQQQP
phosphorylation of PTEN on Y240 (Western blot with anti-pY240): Upon co-expression of the Lyn cDNA with PTEN in HEK 293 cells, we observed a robust phosphorylation of PTEN on Y240
phosphorylation of Y240 of PTEN (Western blot, FIG. 15): the phosphorylation of Y240 is much greater in the presence of lyn than when src is expressed with PTEN

Source: patent publication US20120165340
